# Earlier results in patent US9173901B2, “Compositions and methods of using lamellar bodies for modifying linear biological macromolecules” (LAMELLAR THERAPEUTICS LIMITED, priority 2004, dated 2015).
# B1: rhDNAse: recombinant human DNAse, marketed for thinning CF secretions (protein, UniProt P24855 23-282, looked up)
# Deoxyribonuclease-1: LKIAAFNIQTFGETKMSNATLVSYIVQILSRYDIALVQEVRDSHLTAVGKLLDNLNQDAPDTYHYVVSEPLGRNSYKERYLFVYRPDQVSAVDSYYYDDGCEPCGNDTFNREPAIVRFFSRFTEVREFAIVPLHAAPGDAVAEIDALYDVYLDVQEKWGLEDVMLMGDFNAGCSYVRPSQWSSIRLWTSPTFQWLIPDSADTTATPTHCAYDRIVVAGMLLRGAVVPDSALPFNFQAAYGLSDQLAQAISDHYPVEVMLK
# System: CF patients
# Details: young patients with mild lung disease; six months course
molecule,measurement,value
B1,benefit in FEVI,3%
same,decrease in frequency of intravenous antibiotic courses,34%
